This is an account of results in patent US20240075139A1.

Assay [1] has as its target EBOV Mayinga (GenBank: NC_002549) (Zaire Ebolavirus (EBOV Mayinga)) (UniProt Q05320). The assay can be described thus: cell-based or functional assay.
For assay [2] the target is unchanged. The assay can be described thus: cell-based or functional assay. This is another data set of the same source.

Where two headings read alike, the source gives them in different places.

UniProt Q05320, sequence (Q05320 33-676 limits assumed): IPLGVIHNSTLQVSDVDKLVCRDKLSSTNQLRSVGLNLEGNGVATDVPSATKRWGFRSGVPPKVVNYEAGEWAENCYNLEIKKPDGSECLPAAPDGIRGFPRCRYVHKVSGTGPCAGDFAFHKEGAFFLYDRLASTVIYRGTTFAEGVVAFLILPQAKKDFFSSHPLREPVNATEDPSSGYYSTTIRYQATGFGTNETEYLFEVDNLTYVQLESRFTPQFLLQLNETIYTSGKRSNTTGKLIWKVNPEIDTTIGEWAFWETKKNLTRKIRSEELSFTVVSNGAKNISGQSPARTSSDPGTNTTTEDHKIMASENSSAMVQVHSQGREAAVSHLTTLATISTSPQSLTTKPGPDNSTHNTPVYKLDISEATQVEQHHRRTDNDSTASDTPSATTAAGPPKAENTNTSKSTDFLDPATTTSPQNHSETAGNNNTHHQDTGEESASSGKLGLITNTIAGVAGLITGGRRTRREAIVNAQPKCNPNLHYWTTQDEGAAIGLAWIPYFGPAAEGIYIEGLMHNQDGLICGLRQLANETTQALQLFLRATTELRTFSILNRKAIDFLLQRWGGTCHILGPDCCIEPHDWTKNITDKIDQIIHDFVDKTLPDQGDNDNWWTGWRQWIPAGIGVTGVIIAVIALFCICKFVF

Regarding mAb114 (antibody), the neutralization concentration (GMC, CPE reduction on Vero C1008 cells) in assay [1] came out at 0.744 µg/mL.

B1: 3T0123 (antibody, V domains shown)
VH: QVQLVQSGSEVKKPGASVKVSCQASGYRFANYGISWVRQAPGQGLEWMGWISPLKRDPDYAQNFQGRVTMSRDTSTNTAYMELRGLTSGDTAVYFCARGLGDSYSNAWFVYVFDYWGQGSPVTVSS
VL: EIVMTQSPATLSVSPGERVTLSCRTSQRIHTNLAWYQQKSGQAPRLVMYDAFTRAPGVPARFSGGGSETEFTLTISSLQSEDFALYYCQQYSQRPTFGLGTKLEIK
Molecule B1 registered a neutralization concentration (GMC, CPE reduction on Vero C1008 cells) in assay [2] of 0.52 µg/mL.
